In experiment [1] the target is T1, human serum albumin (human, UniProt P02768 25-609).
T1 construct: Coupled directly to the CM5 chip; also called HSA; human SA
In words: SPR, SA coupled to chip, pH 5.5. The protocol: Affinity of molecules to serum albumin (SA) of the different species was determined by SPR measurements using a Biacore T200 device (GE Healthcare). SA was directly coupled to a CM5 sensor chip (GE Healthcare) using amine coupling chemistry. […] The assay was run in a 1× PBS-Tween buffer at pH 5.5.

Experiment [2] deals with T2, Fc tagged human PDL1 (human, UniProt Q9NZQ7 19-239).
T2 construct: Bought (Sino Biological, cat. 10084-H02H); captured on the SPR chip; also called PDL1-Fc chimeric protein
The experiment in a line: SPR. Put shortly:
(§1)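 Kinetics were fitted with a one-to-one Langmuir model to give apparent ka, kd and KD. Binders at 0.12-90 nM (three-fold series) flowed 3 min, with 10 min dissociation and 3 M MgCl₂ regeneration, on a Biacore T200.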

The target in experiment [3] is T3, Fc tagged human CD137 (human, UniProt Q07011 24-186).
T3 construct: also called CD137-Fc chimeric protein
The experiment in a line: SPR. The method, boiled down: as §1

Experiment [4] addresses T4, biotinylated human PDL1 (human, UniProt Q9NZQ7 19-238, limits assumed, biotinylated).
T4 construct: also called biotinylated PDL1
The experiment in a line: competition ELISA B7.1/PDL1. The method, boiled down:
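IC₅₀ was derived by four-parameter logistic fitting of reference-subtracted A450/690 readings. The signal came from streptavidin-polyHRP40 (10 ng/ml) with a 6-minute TMB reaction detecting biotinylated PDL1 bound to the plate. Pre-mixed samples sat 1 h at RT before a 1.5 h plate incubation.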
On the technique in general: In an ELISA, binding on a coated surface is turned into a signal by an enzyme label.

Experiment [5] addresses human PDL1 on cells (human, UniProt Q9NZQ7 19-290). In words: cell-based or functional assay.
The target in experiment [6] is T5, CD137 on Jurkat NFkB reporter cells (human, UniProt Q07011 24-255). In words: cell-based or functional assay.
Experiment [7] has as its target T4, biotinylated human PDL1. In words: competition ELISA PD-1/PDL1.
Experiment [8] deals with T5, CD137 on Jurkat NFkB reporter cells. In words: cell-based or functional assay. This is another data set of the same source.
Experiment [9] deals with T6, mouse CD137-Fc chimeric protein (mouse, UniProt P20334 24-187, limits assumed).
T6 sequence (looked up): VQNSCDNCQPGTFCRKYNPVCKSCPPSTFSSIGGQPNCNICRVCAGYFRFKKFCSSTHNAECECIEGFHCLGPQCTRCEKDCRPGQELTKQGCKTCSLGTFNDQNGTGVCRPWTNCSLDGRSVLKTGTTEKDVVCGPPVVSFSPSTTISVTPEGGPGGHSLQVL
The experiment in a line: SPR. The method, boiled down:
as §1
(SPR reads the build-up and loss of mass on a sensor chip optically.)

B1: PRO1479 (other)
chain: DIQMTQSPASLSASVGDRVTITCQASQSIGTYLAWYQQKPGKPPKLLIYRAFILASGVPSRFSGSGSGTDFTLTISSLQPEDFATYYCQSNFYSDSTTIGPNAFGTGTKVTVLGGGGGSEVQLVESGGGLVQPGGSLRLSCAASGFSFSNSYWICWVRQAPGKCLEWIGCTFVGSSDSTYYANWAKGRFTISRDNSKNTVYLQMNSLRAEDTAVYYCARHPSDAVYGYANNLWGQGTLVTVSSGGGGSGGGGSGGGGSGGGGSIQMTQSPSSLSASVGDRVTITCQASQSINNVLAWYQQKPGKAPKLLIYRASTLASGVPSRFSGSGSGTDFTLTISSLQPEDFATYYCQSSYGNYGDFGCGTKVTVLGGGGGSEVQLVESGGGLVQPGGSLRLSCAASGFSFNSDYWIYWVRQAPGKGLEWIASIYGGSSGNTQYASWAQGRFTISRDNSKNTVYLQMNSLRAEDTAVYFCARGYVDYGGATDLWGQGTLVTVSSGGGGSGGGGSIQMTQSPSSLSASVGDRVTITCQSSESVYSNNQLSWYQQKPGQPPKLLIYDASDLASGVPSRFSGSGSGTDFTLTISSLQPEDFATYYCAGGFSSSSDTAFGGGTKLTVLGGGGGSGGGGSGGGGSGGGGSEVQLVESGGGLVQPGGSLRLSCAASGFSLSSNAMGWVRQAPGKGLEYIGIISVGGFTYYASWAKGRFTISRDNSKNTVYLQMNSLRAEDTATYFCARDRHGGDSSGAFYLWGQGTLVTVSS
notes: trispecific scDb-scFv; also called 38-02-A04 sc13 scDb-i/37-20-B03 sc09.1 scDb-o/19-01-H04 sc03 scFv
Broadly, the Kd is the constant that tells how readily two partners part at equilibrium. Low readings indicate a tighter complex, high ones a looser complex. In general, kon refers to the rate constant with which the complex forms. Read a low kon as slow association. Broadly, the koff is the rate constant with which the complex falls apart. For orientation: IC50 means the concentration that gives 50% inhibition. A low value points to greater potency. In experiment [1], B1 gave a Kd of 0.976 nM. In addition, in experiment [2], binding was put at a Kd of 0.0092 nM and the kon stood at 4.2e+06 M⁻¹ s⁻¹. In addition, in [3], the Kd was found to be 1.7 nM, the koff was 0.00054 s⁻¹ and the kon came out at 330000 M⁻¹ s⁻¹. In [4], the IC50 stood at 10.7 ng/mL and the “rel. IC50 (IC50 avelumab/IC50 test)” value turned out to be 1.38 fold. In experiment [5], the “IC50 (ng/ml), NF-AT potency assay, +HSA” value was found to be 50.4 ng/mL and the “rel. IC50 (avelumab/test), +HSA” value was 1.04 fold. In [6], the “Area under the curve (calculated using PRO885 normalized data), first line (6 h by the order of the upper part)” value is 191; the “Area under the curve (calculated using PRO885 normalized data), second line (24 h by the order of the upper part)” value was 207; the “EC50 [ng/ml], NF-kB reporter, HCC827 + IFNg, +HSA, 6 h” value is 7.38 ng/mL; the “IC10/EC90 ratio, first line (6 h by the order of the upper part)” value was determined as 81.9. For the same molecule, in experiment [6], the “IC10/EC90 ratio, second line (24 h by the order of the upper part)” value was found to be 523; the “Maximum NF-kB activation (rel. to PRO1186) [%], first line (6 h by the order of the upper part)” value came out at 108%; the “Maximum NF-kB activation (rel. to PRO1186) [%], second line (24 h by the order of the upper part)” value was found to be 119%; the “rel. Area under the curve (AUCsample/AUCPRO1186), first line (6 h by the order of the upper part)” value was 1.11 fold. Also, in experiment [6], the “rel. Area under the curve (AUCsample/AUCPRO1186), second line (24 h by the order of the upper part)” value was found to be 1.37 fold; the “rel. EC50 (EC50, PRO1186/EC50, sample), NF-kB reporter, 6 h” value was 1.74 fold; the “rel. EC50 (EC50, PRO1186/EC50, sample), NF-kB reporter, 24 h” value was 0.87 fold; the “rel. IC10/EC90 (ratio of sample/ratio of PRO1186), first line (6 h by the order of the upper part)” value is 0.25 fold. The “rel. IC10/EC90 (ratio of sample/ratio of PRO1186), second line (24 h by the order of the upper part)” value in experiment [6] was determined as 1.66 fold. For the same molecule, in [7], the half-maximal inhibitory concentration (IC50) was found to be 2.65 ng/mL and the “rel. IC50 (IC50 avelumab/IC50 test)” value stood at 0.86 fold. Moreover, in experiment [8], the “IC50 (ng/ml) (EC50 in Table 16C), NFkB reporter, HCC827 + IFNg, 24 h, +HSA” value stood at 7.61 ng/mL and the “rel. IC50 (PRO1186/test), 24 h” value came to 0.87 fold.

B2: PRO1430 (other)
chain: DIQMTQSPSSLSASVGDRVTITCQASQSIGTYLAWYQQKPGKAPKLLIYRAFILASGVPSRFSGSGSGTDFTLTISSLQPEDFATYYCQSNFYSDSTTIGPNAFGTGTKVTVLGGGGGSEVQLVESGGGLVQPGGSLRLSCAASGFSFSNSYWICWVRQAPGKCLEWIGCTFVGSSDSTYYANWAKGRFTISRDNSKNTVYLQMNSLRAEDTAVYYCARHPSDAVYGYANNLWGQGTLVTVSSGGGGSGGGGSGGGGSGGGGSIQMTQSPSSLSASVGDRVTITCQASQSINNVLAWYQQKPGKAPKLLIYRASTLASGVPSRFSGSGSGTDFTLTISSLQPEDFATYYCQSSYGNYGDFGCGTKVTVLGGGGGSQVQLQESGPGLVKPSETLSLTCKVSGFSFNSDYWIYWIRQPPGKGLEWIGSIYGGSSGNTQYASWAQGRVTISVDSSKNQFSLKLSSVTAADTAVYYCARGYVDYGGATDLWGQGTLVTVSSGGGGSGGGGSIQMTQSPSSLSASVGDRVTITCQSSESVYSNNQLSWYQQKPGQPPKLLIYDASDLASGVPSRFSGSGSGTDFTLTISSLQPEDFATYYCAGGFSSSSDTAFGGGTKLTVLGGGGGSGGGGSGGGGSGGGGSEVQLVESGGGLVQPGGSLRLSCAASGFSLSSNAMGWVRQAPGKGLEYIGIISVGGFTYYASWAKGRFTISRDNSKNTVYLQMNSLRAEDTATYFCARDRHGGDSSGAFYLWGQGTLVTVSS
notes: trispecific scDb-scFv; also called 38-02-A04 sc13 scDb-i/37-20-B03 sc01 scDb-o/19-01-H04 sc03 scFv
In experiment [1], B2 had a Kd of 1 nM, a koff of 0.0003 s⁻¹ and an on-rate constant (kon) of 290000 M⁻¹ s⁻¹. The molecule further displayed a Kd in experiment [2] of 0.0045 nM. Besides, in experiment [3], the Kd was determined as 1.5 nM, the koff was 0.00071 s⁻¹ and the kon stood at 460000 M⁻¹ s⁻¹. In [4], the half-inhibitory concentration (IC50) came to 2.42 ng/mL and the “rel. IC50 (IC50 avelumab/IC50 test)” value is 1.15 fold. Besides, in experiment [5], the “IC50 (ng/ml), NF-AT potency assay, +HSA” value amounted to 16.2 ng/mL and the “rel. IC50 (avelumab/test), +HSA” value amounted to 1.45 fold. Moreover, in experiment [6], the “Area under the curve (calculated using PRO885 normalized data), first line (6 h by the order of the upper part)” value was 196; the “Area under the curve (calculated using PRO885 normalized data), second line (24 h by the order of the upper part)” value is 180; the “EC50 [ng/ml], NF-kB reporter, HCC827 + IFNg, +HSA, 6 h” value was 9.8 ng/mL; the “IC10/EC90 ratio, first line (6 h by the order of the upper part)” value was found to be 72.4. Moreover, in [6], the “IC10/EC90 ratio, second line (24 h by the order of the upper part)” value was 1240; the “Maximum NF-kB activation (rel. to PRO1186) [%], first line (6 h by the order of the upper part)” value was determined as 110%; the “Maximum NF-kB activation (rel. to PRO1186) [%], second line (24 h by the order of the upper part)” value is 98.6%; the “rel. Area under the curve (AUCsample/AUCPRO1186), first line (6 h by the order of the upper part)” value amounted to 1.03 fold. In addition, in experiment [6], the “rel. Area under the curve (AUCsample/AUCPRO1186), second line (24 h by the order of the upper part)” value was determined as 0.87 fold; the “rel. EC50 (EC50, PRO1186/EC50, sample), NF-kB reporter, 6 h” value stood at 1.31 fold; the “rel. EC50 (EC50, PRO1186/EC50, sample), NF-kB reporter, 24 h” value is 1.51 fold; the “rel. IC10/EC90 (ratio of sample/ratio of PRO1186), first line (6 h by the order of the upper part)” value was 0.22 fold. The “rel. IC10/EC90 (ratio of sample/ratio of PRO1186), second line (24 h by the order of the upper part)” value in [6] was 3.94 fold. In experiment [7], the IC50 stood at 1.92 ng/mL and the “rel. IC50 (IC50 avelumab/IC50 test)” value amounted to 0.73 fold. In experiment [8], the “IC50 (ng/ml) (EC50 in Table 16C), NFkB reporter, HCC827 + IFNg, 24 h, +HSA” value turned out to be 4.42 ng/mL and the “rel. IC50 (PRO1186/test), 24 h” value was found to be 1.51 fold.

B3: PRO1134 (bispecific antibody)
chain: DIQMTQSPSSLSASVGDAVTITCQASQSINDYLAWYQQKPGKSPKLLIYKASTLASGVPSRFSGSGSGTDFTLTISSLQPEDFATYYCQQGYIITDIDNVFGTGTKVTVLGGGGGSQVQLQESGPGLVKPSETLSLTCKVSGFSFSNSYWICWIRQPPGKGLEWIGCTFVGSSDSTYYANWAKGRVTISVDSSKNQFSLKLSSVTAADTAVYYCARHPSDAVYGYANNLWGQGTLVTVSSGGGGSGGGGSGGGGSGGGGSIQMTQSPSSLSASVGDRVTITCQASQSINNVLAWYQQKPGKAPKLLIYRASTLASGVPSRFSGSGSGTDFTLTISSLQPEDFATYYCQSSYGNYGDFGTGTKVTVLGGGGGSEVQLVESGGGLVQPGGSLRLSCAASGFSFSSGYDMCWVRQAPGKGLEWVGCVVAGSVDITYYASWAKGRFTISRDNSKNTVYLQMNSLRAEDTATYYCARKDAYSDAFNLWGPGTLVTVSS
notes: scDb; also called 38-02-A04 sc01 scDb-i/33-03-G02 sc07 GL VH3 scDb-o
For the molecule B3, in experiment [2], the dissociation rate constant (koff) is 7.6e-05 s⁻¹ and the kon amounted to 2.8e+06 M⁻¹ s⁻¹. In experiment [3], binding was characterised by a dissociation constant (Kd) of 3.4 nM, the off-rate (koff) turned out to be 0.00084 s⁻¹ and the on-rate constant (kon) was found to be 250000 M⁻¹ s⁻¹. Moreover, in experiment [9], the Kd was found to be 420 nM.
